Assay results taken from publication PMC12585912, “Solution structure of the Sox2 DNA-binding domain reveals conformational selection in DNA binding”.

Biological target: Sox2(24-118) DBD (UniProt P48431 24-118)
Assay: NMR titration; 0.5 M ionic strength; specific binding in slow exchange, nonspecific mode reduced; 20 mM Tris, 135 mM KCl, 15 mM NaCl, pH 7.3 (NMR: 10% D2O, 0.01% NaN3, 293 K; nanoDSF: 25 uM protein, 1 mM DTT in protein/DNA buffer, 288-368 K at 1 K/min)
Details: protein: recombinant; tags: N-terminal T7-tag; blunt

Chain of Sox2(24-118) DBD (P48431 24-118): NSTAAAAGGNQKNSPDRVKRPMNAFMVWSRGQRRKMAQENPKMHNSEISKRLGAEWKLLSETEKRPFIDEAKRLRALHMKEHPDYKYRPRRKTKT

B1: FGF4 DNA 13-mer (dsDNA)
DNA 1: ACTCTTTGTTCGA
DNA 2: TCGAACAAAGAGT
B1: binds.
